Assay results: publication PMC6377406

Molecular target: ΔN-PINK1-GFP (UniProt Q9BXM7)
Assay: co-IP; GFP IP (μMACS Epitope Tag Protein Isolation kit) of lysates of transfected HEK293 cells; immunoblot

UniProt Q9BXM7, sequence (Q9BXM7 78-581, stated change not applied): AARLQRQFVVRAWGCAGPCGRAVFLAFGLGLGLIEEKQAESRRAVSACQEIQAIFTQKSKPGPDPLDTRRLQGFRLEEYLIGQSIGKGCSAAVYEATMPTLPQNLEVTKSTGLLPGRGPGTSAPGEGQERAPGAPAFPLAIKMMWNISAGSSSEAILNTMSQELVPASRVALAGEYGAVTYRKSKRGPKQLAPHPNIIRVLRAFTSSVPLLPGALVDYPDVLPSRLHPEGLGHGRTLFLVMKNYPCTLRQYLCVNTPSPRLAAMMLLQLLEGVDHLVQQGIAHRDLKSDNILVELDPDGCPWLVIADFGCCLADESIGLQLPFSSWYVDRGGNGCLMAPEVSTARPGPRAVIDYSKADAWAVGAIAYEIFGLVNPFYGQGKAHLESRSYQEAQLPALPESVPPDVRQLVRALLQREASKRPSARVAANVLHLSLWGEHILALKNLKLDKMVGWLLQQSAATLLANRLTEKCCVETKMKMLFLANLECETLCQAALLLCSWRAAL

- fold of VCP pulled down against OMM-PINK1-GFP: 4 fold
Substance: valosin-containing protein (VCP), endogenous in HEK293 cells (from UniProt P55072 1-806) (natural protein)
